The experiment concerns the target PRO-C17 monoclonal antibody. Put plainly: competitive ELISA; standard peptide competes with plate-bound biotinylated … for the HRP-labelled mAb.

B1: 30 amino acid standard peptide (…) (peptide)
peptide: QGMAPAAGADLDKIGLHSDSQEELWMFVRK
B1 showed a 50% inhibitory concentration (IC50) of 2.1 ng/mL, a Mean IC25 of 0.8 ng/mL and a Mean IC75 of 5.5 ng/mL.

The values are drawn from patent US20260266825A1.
